Assay results reported in patent US20100158902A1 (ONO PHARMACEUTICAL, published 2010).

Key:
[1] = biological target: T1, monomeric SDF-1 (human, UniProt P48061 22-89); experiment: SPR (Biacore), low density of SDF-1 covalently attached to CM5 chip, analyte at 10-50 nM
T1 construct: also called monomeric form of SDF-1; SDF-1 at low density on a CM5 chip

[2] = biological target: T2, recombinant human SDF-1α (Peprotech) (human, UniProt P48061 22-89); experiment: SPR (Biacore), antibody amine-coupled to CM5 chip, SDF-1 flowed at 5-40 nM right after dilution to maximize the dimer population, 1:1 Langmuir fit
T2 construct: Bought protein (Peprotech, cat. 300-28A); also called rh SDF-1α; Stromal cell-Derived Factor-1
Procedure: The antigen-antibody association kinetics was followed for 2 minutes and the dissociation kinetics was followed for 8 minutes. The association and dissociation curves were fit to a 1:1 Langmuir binding model using BIAevaluation software (Biacore AB).

[3] = biological target: T1, monomeric SDF-1; experiment: SPR (Biacore), low density of SDF-1 covalently attached to CM5 chip, analyte at 100-500 nM
[4] = biological target: T2, recombinant human SDF-1α (Peprotech); experiment: cell-based or functional assay
[5] = biological target: T2, recombinant human SDF-1α (Peprotech); experiment: radio-labeled ligand binding assay: the antibody blocks binding of 100 pM 125I-SDF-1 to CEM cells; unit taken from the axis 'Ab in nM'
Text: (§1) An irrelevant antibody with the same isotype was used as a negative control.

[6] = biological target: T2, recombinant human SDF-1α (Peprotech); experiment: radio-labeled ligand binding assay: the antibody blocks binding of 100 pM 125I-SDF-1α to HuVEC cells (GAGs, no CXCR4); unit taken from the axis 'Ab conc in nM'
Text: as §1

T2 sequence (P48061 22-89 limits assumed): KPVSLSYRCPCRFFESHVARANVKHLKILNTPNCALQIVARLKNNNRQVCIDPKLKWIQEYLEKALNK
T1 sequence (P48061 22-89 limits assumed): as above

Row | Binder | Kd [1] | koff [1] | kon [1] | Kd [2] | koff [2] | kon [2] | Kd [3] | koff [3] | kon [3] | EC50, inhibition of SDF-1α (5 nM)-induced migration of CEM cells (Fluorescent Units) [4] | EC50 [5] | EC50 [6]
1 | 1C6 human monoclonal antibody (antibody, V domains shown, Whole human monoclonal antibody with kappa light chain (VK L18), from a HuMAb Mouse; also called Z1/C6; mAb Z group antibody) VH: EVQLVESGRGLVQPGGSLRLSCAASGFTFSSYWMSWVRQAPGKGLEWVANMNQDGSEKYYVDSVKGRFTISRDNAKNSLYLQMNSLRAEDTAVYYCARDLTGPYYYDYYGMDVWGQGTTVTVSS VL: AIRMTQSPSSVSASVGDRVTITCRASQGISSALAWYQQTPGKAPKLLIYDASSLESGVPSRFSGSGSGTDFTLTISSLQPEDFATYYCQQFNSYPRTFGQGTKVEIK | 3.6 nM | 0.0004 s⁻¹ | 110000 M⁻¹ s⁻¹ | 0.46 nM | 0.00064 s⁻¹ | 1.4e+06 M⁻¹ s⁻¹ | – | – | – | – | – | –
2 | 1D3 human monoclonal antibody (antibody, V domains shown, Whole human monoclonal antibody with kappa light chain (VK L18), from a KM Mouse; also called B1/D3; mAb B group antibody) VH: EVQLVQSGAEVKKPGASVKVSCKVSGYTLTKLSVHWVRQAPGKGLEWMGSFDPEDGETIYSQRFQGRVTMTEDTSTDTAYMELTSLRSEDTAVYYCATEGQWLVAYYGMDVWGQGTTVTVSS VL: EIVLTQSPSSLSASVGDRVTITCRASQGISSALAWYQQKPGKAPKLLIYDASSLESGVPSRFSGSGSGTDFTLTISSLQPEDFATYYCQQFNSYPLTFGGGTKVEIK | – | – | – | 0.63 nM | 0.0005 s⁻¹ | 800000 M⁻¹ s⁻¹ | 151 nM | 0.0017 s⁻¹ | 11000 M⁻¹ s⁻¹ | – | – | –

Continued by falling Kd [2], values first:

Row | Kd [1] | koff [1] | kon [1] | Kd [2] | koff [2] | kon [2] | Kd [3] | koff [3] | kon [3] | EC50, inhibition of SDF-1α (5 nM)-induced migration of CEM cells (Fluorescent Units) [4] | EC50 [5] | EC50 [6] | Binder
3 | – | – | – | 1.32 nM | 0.00084 s⁻¹ | 600000 M⁻¹ s⁻¹ | 176 nM | 0.0016 s⁻¹ | 9100 M⁻¹ s⁻¹ | 0.498 nM | 0.117 nM | 0.013 nM | 1H2 human monoclonal antibody (antibody, V domains shown, Whole human monoclonal antibody with kappa light chain (VK L18), from a KM Mouse; also called B1/H2; B1H2) VH: QVQLVQSGAEVKKPGASVKVSCKVSGYTFTKLSVHWVRQAPGKGLEWMGSFDPEDGETIYSQRFQGRVTMTEDTSTDTAYMELSSLRSEDTAVYYCATEGQWLVAYYGMDVWGQGTMVTVSS VL: EIVLTQSPSSLSASVGDRVTITCRASQGISSALAWYQQKPGKAPKLLIYDASSLESGVPSRFSGSGSGTDFTLTISSLQPEDFATYYCQQFNSYPLTFGGGTKVEIK
4 | 4.6 nM | 0.00045 s⁻¹ | 96000 M⁻¹ s⁻¹ | 0.37 nM | 0.0011 s⁻¹ | 2.9e+06 M⁻¹ s⁻¹ | – | – | – | 0.543 nM | 0.347 nM | 0.0637 nM | 2A5 human monoclonal antibody (antibody, V domains shown, Whole human monoclonal antibody with kappa light chain (VK L18), from a HuMAb Mouse; also called Z2/A5; Z2A5) VH: QVQLVQSGGGLVQPGGSLRLSCAASGFTFSSYWMSWVRQAPGKGLEWVANMNQDGSEKYYVDSVKGRFTISRDNAKNSLYLQMNSLRAEDTAVYYCARDLTGPYYYDYYGMDVWGQGTTVTVSS VL: DIQMIQSPSSLSASVGDRVTITCRASQGISSALAWYQQKPGKAPKLLIYDASSLESGVPSRFSGSGSGTDFTLTISSLQPEDFATYYCQQFNSYPRTFGQGTKVEIK
